According to publication doi:10.1101/2025.11.17.688911 (2025):

Molecular target: surface-immobilized biotinylated microtubules (pig, UniProt Q2XVP4 1-451; Q767L7 1-444, biotin (site not stated) | biotin (site not stated))
Sequence (Q2XVP4 whole entry, chain 1 of 2): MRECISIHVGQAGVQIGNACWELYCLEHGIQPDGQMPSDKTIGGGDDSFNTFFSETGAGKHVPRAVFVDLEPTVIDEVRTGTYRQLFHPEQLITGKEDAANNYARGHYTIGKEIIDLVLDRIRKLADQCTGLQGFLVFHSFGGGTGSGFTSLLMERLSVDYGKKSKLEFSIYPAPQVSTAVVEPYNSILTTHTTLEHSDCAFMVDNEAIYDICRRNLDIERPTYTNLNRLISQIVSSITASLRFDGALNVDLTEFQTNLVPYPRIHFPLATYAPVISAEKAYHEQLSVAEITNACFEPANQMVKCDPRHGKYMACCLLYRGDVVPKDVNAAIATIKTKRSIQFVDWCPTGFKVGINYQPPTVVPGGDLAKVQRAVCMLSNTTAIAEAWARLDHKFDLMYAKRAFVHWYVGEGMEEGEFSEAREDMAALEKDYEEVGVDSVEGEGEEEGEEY
Sequence (Q767L7 other isoform, or with tags, fused parts or gaps, chain 2 of 2): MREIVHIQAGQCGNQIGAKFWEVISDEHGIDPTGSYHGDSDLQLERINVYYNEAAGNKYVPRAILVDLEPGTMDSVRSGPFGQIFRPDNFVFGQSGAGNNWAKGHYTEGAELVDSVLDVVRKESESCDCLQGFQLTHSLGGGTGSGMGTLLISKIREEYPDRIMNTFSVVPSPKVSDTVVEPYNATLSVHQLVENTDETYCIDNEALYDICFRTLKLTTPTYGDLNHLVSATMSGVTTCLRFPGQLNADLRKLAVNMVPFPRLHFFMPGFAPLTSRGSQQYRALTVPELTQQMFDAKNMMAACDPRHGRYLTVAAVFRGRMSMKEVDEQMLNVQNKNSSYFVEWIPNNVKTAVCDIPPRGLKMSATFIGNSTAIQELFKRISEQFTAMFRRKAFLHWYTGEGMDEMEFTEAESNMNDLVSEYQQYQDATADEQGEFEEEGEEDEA

B1: MAP9-MTBD (Human MAP9 (302–647)::GFP::strepII) (domain or fragment)
chain: SKESQVTADDLEEEKAKAELIMDDDRTVDPLLSKSQSILISTSATASSKKTIEDRNIKNKKSTNNRASSASARLMTSEFLKKSSSKRRTPSTTTSSHYLGTLKVLDQKPSQKQSIEPDRADNIRAAVYQEWLEKKNVYLHEMHRIKRIESENLRIQNEQKKAAKREEALASFEAWKAMKEKEAKKIAAKKRLEEKNKKKTEEENAARKGEALQAFEKWKEKKMEYLKEKNRKEREYERAKKQKEEETVAEKKKDNLTAVEKWNEKKEAFFKQKEKEKINEKRKEELKRAEKKDKDKQAINEYEKWLENKEKQERIERKQKKRHSFLESEALPPWSPPSRTVFAKVF
  Kd: 43 nM
